According to US10799597B2, “Subcutaneous administration of antibody-drug conjugates for cancer therapy” (Immunomedics, Inc., priority 2017, dated 2020):
Values joined by “and” are separate entries in the source; they are usually repeats but may differ in a detail not shown here. Equal values may be shown once.

Tests used:
[1] = Pharmacokinetics and biodistribution of 111In-labeled hRS7-CL2A-SN-38 and hRS7 IgG in nude mice bearing SK-MES-1 tumors; format: in vivo
Procedure: One group was injected intravenously with 20 μCi (250-μg protein) of ^111In-hRS7-CL2A-SN-38, whereas another group received 20 μCi (250-μg protein) of ^111In-hRS7 IgG. At various timepoints mice (5 per timepoint) were anesthetized, bled via intracardiac puncture, and then euthanized. Tumors and various tissues were removed, weighed, and counted by γ scintillation to determine the percentage injected dose per gram tissue (% ID/g). […] Pharmacokinetic analysis on blood clearance was performed using WinNonLin software (Parsight Corp.).

[2] = test system: diverse metastatic cancers; assay: Phase I/II clinical trial of IMMU-132 (Example 9): best response and TTP
Procedure: (§2) To optimize cumulative treatment with minimal delays, phase II is focusing on 8 and 10 mg/kg (n=30 and 14, respectively). […] [table]

[3] = test system: Capan-1 pancreatic adenocarcinoma xenografts; assay: Therapy of Capan-1 tumor xenografts in nude mice; format: in vivo, athymic nude mice; conditions: 0.2 mg/kg SN-38 twice weekly×4 weeks
Procedure: FIG. 3C. […] Animals were treated twice weekly for 4 weeks as indicated by the arrows. Capan-1 mice (N=10) were treated with 0.2 mg/kg ADC and tumors measured weekly.
FIG. 4C. […] Capan-1 (N=10) were treated twice weekly for 4 weeks with the agents indicated.

advanced GI cancers = assay: Phase I/II trial of IMMU-132 in patients with advanced GI cancers: best response by RECIST and time to progression; format: in vivo, human; conditions: for median TTP: SD patients
Procedure: Patients with metastatic cancers were enrolled after failing standard therapy, starting at a dose of 8.0 mg/kg given on days 1 and 8 of a 3-week cycle. […]

[4] = format: in vivo, human
Procedure: SN-38 was measured by HPLC.

[5] = test system: triple-negative breast cancer; assay: Subcutaneous IMMU-132 in triple-negative breast cancer patients (Example 10); format: in vivo, human
Procedure: Maintenance doses of ADC are administered i.v. or s.c. every two to three weeks or monthly after induction. Alternatively, induction may occur with two to four cycles of i.v. administration at 8-10 mg/kg (each cycle with ADC administration on Days 1 and 8 of two 21-day cycles with a one-week rest period in between), followed by s.c. administration as active dosing one or more times weekly or as maintenance therapy. Dosing may be adjusted based on interim tumor scans and/or by analysis of Trop-2 positive circulating tumor cells.

[6] = test system: COLO 205 colonic adenocarcinoma xenografts; conditions: 0.4 mg/kg SN-38 twice weekly×4 weeks
Procedure: Animals were implanted subcutaneously with different human cancer cell lines. Tumor volume (TV) was determined by measurements in 2 dimensions using calipers, with volumes defined as: L×w^2/2, where L is the longest dimension of the tumor and w is the shortest. […] This dosing frequency reflected a consideration of the conjugate's serum half-life in vitro, to allow a more continuous exposure to the ADC.
Growth curves are shown as percent change in initial TV over time. Statistical analysis of tumor growth was based on area under the curve (AUC). Profiles of individual tumor growth were obtained through linear-curve modeling. An f-test was employed to determine equality of variance between groups before statistical analysis of growth curves. A 2-tailed t-test was used to assess statistical significance between the various treatment groups and controls, except for the saline control, where a 1-tailed t-test was used (significance at P≤0.05). Statistical comparisons of AUC were performed only up to the time that the first animal within a group was euthanized due to progression.

Calu-3 = assay: Signaling events (p21Waf1/Cip1, p53) in Calu-3 cells; format: cell-based, human
Description: (§1) SN-38 is known to activate several signaling pathways in cells, leading to apoptosis (e.g., Cusack et al., 2001, Cancer Res 61:3535-40; Liu et al. 2009, Cancer Lett 274:47-53; Lagadec et al., 2008, Br J Cancer 98:335-44). Our initial studies examined the expression of 2 proteins involved in early signaling events (p21^Waf1/Cip1 and p53) and 1 late apoptotic event [cleavage of poly-ADP-ribose polymerase (PARP)] in vitro (not shown).

[7] = Tolerability in Cynomolgus monkeys; format: in vivo, Cynomolgus monkeys (Macaca fascicularis)
Procedure: FIG. 5C. Tolerability of hRS7-CL2A-SN-38 in Cynomolgus monkeys. […] All animals were bled on day −1, 3, and 6. Four monkeys were bled on day 11 in the 0.96 mg/kg group, 3 in the 1.92 mg/kg group. Changes in neutrophil counts in Cynomolgus monkeys.
FIG. 5D. Tolerability of hRS7-CL2A-SN-38 in Cynomolgus monkeys. […] All animals were bled on day −1, 3, and 6. Four monkeys were bled on day 11 in the 0.96 mg/kg group, 3 in the 1.92 mg/kg group. Changes in platelet counts in Cynomolgus monkeys.

BxPC-3 = assay: Signaling events (p21Waf1/Cip1, p53) in BxPC-3 cells; format: cell-based, human
Description: as §1

[8] = Phase I/II clinical trial of IMMU-132 (Example 9): related adverse events
Procedure: as §2

[9] = 48 assessable patients (excluding PDC)
[10] = one gastric cancer patient with SD
[11] = 49 patients reporting related AE
[12] = related AE, N = 47 patients, CTCAE v 4.0

## IMMU-132: ADC of the humanized hRS7 anti-Trop-2 antibody conjugated by a pH-sensitive linker (CL2A) to SN-38
[1]; 72 hours (peak uptake)
  amount in the tumor compared with hRS7 IgG: similar
[1]; i.v., 250-μg protein
  half-life shorter than unconjugated hRS7: ~40%
[2]; 13 CT-assessable PDC patients
  patients with SD: 62%
[2]; [9]
  patients with disease response (total): 79%
  patients with partial response (PR): 15%
[2]; PDC patients
  median time to progression (TTP): 12.7 wks and 11.9 wks
[3]
  tumor growth vs. saline and hA20-CL2A-SN-38: significantly inhibited tumor growth
[3]; day 140
  mice tumor-free at the end of the study: 50%
Advanced GI cancers; 29 CRC patients (9 at 10 mg/kg, 20 at 8 mg/kg)
  PR (partial response) as best response by RECIST, number of patients: 1
Advanced GI cancers; CRC patient with PR
  target lesion change of the PR: −65%
  time to progression (TTP) for the PR: ≥ 50 wks
Advanced GI cancers; CRC with KRAS mutations
  median TTP: ≥ 19.1 wks
Advanced GI cancers; CRC, 14 SD patients (5 continuing)
  median TTP for the SD patients: ≥ 21 wks
Advanced GI cancers; esophageal cancer
  TTP of the PR: ≥ 30 wks
  duration of SD in individual patients: ≥ 17.4 wks and 21.9 wks and 26.3 wks and 29.9 wks
Advanced GI cancers; [10]
  ongoing TTP: ≥ 29 wks
  target lesion reduction: 19%
Advanced GI cancers; pancreatic cancer
  median TTP: 15.0 wks
[4]; ELISA
  clearance of intact conjugate vs. the IgG: cleared more quickly than the IgG
[4]; patients
  time for the conjugate to clear from the serum: ≤ 3 days
[5]; s.c.
  localized reaction at the administration site: no adverse localized reaction is observed
[5]; s.c. 2 to 4 mg/kg schedules, after two cycles of therapy
  average decrease in tumor volume: 35%
[6]
  tumor growth vs. saline and hA20-CL2A-SN-38: significantly inhibited tumor growth
Calu-3
  increase of p21Waf1/Cip1 expression over free SN-38: more than 2 fold
  time of p53 upregulation: ≤ 24 h
[7]; 2×0.96 mg SN-38/kg, transient decreases
  blood count values: did not fall below normal ranges
[7]; cynomolgus monkey, in vivo
  MTD, human equivalent dose: 2×0.3 to 0.6
BxPC-3
  time of p53 upregulation: ≤ 24 h
[8]; [11]
  alopecia: 40%
  diarrhea: 47%
  fatigue: 55%
  nausea: 53%
  neutropenia G4: 4%
  vomiting: 32%
[8]; [12]
  Abdominal pain, Grade 3, patients (%): 0
  Abdominal pain, Grade 4, patients (%): 0
  Anemia, Grade 3, patients (%): 2 (4%)
  Anemia, Grade 4, patients (%): 0
  Deep vein thrombosis, Grade 3, patients (%): 1 (2%)
  Deep vein thrombosis, Grade 4, patients (%): 0
  Diarrhea, Grade 3, patients (%): 4 (9%)
  Diarrhea, Grade 4, patients (%): 0
  Dysgeusia, Grade 3, patients (%): 0
  Dysgeusia, Grade 4, patients (%): 0
  Fatigue, Grade 3, patients (%): 4 (9%)
  Fatigue, Grade 4, patients (%): 0
  Febrile Neutropenia, Grade 3, patients (%): 1 (2%)
  Febrile Neutropenia, Grade 4, patients (%): 2 (4%)
  Hypokalemia, Grade 3, patients (%): 1 (2%)
  Hypokalemia, Grade 4, patients (%): 0
  Nausea, Grade 3, patients (%): 0
  Nausea, Grade 4, patients (%): 0
  Neutropenia, Grade 3, patients (%): 11 (24%)
  Neutropenia, Grade 4, patients (%): 2 (4%)
  Pyrexia, Grade 3, patients (%): 0
  Pyrexia, Grade 4, patients (%): 0
  Vomiting, Grade 3, patients (%): 1 (2%)
  Vomiting, Grade 4, patients (%): 0
  WBC Decrease, Grade 3, patients (%): 1 (2%)
  WBC Decrease, Grade 4, patients (%): 0
